First the molecules themselves.
B1: human B7-1Fc fusion protein (Fc fusion, UniProt P33681 35-242, looked up, not shown: a dimerising Fc or GST)
chain: VIHVTKEVKEVATLSCGHNVSVEELAQTRIYWQKEKKMVLTMMSGDMNIWPEYKNRTIFDITNNLSIVILALRPSDEGTYECVVLKYEKDAFKREHLAEVTLSVKADFPTPSISDFEIPTSNIRRIICSTSGGFPEPHLSWLENGEELNAINTTVSQDPETELYAVSSKLDFNMTTNHSFMCLIKYGHLRVNQTFNWNTTKQEHFPDN
notes: Used biotinylated in ELISA; also called B7-1 Ig; B7-1 Ig fusion protein
B2: human B7-2Fc fusion protein (Fc fusion, UniProt P42081 24-245, looked up, not shown: a dimerising Fc or GST)
chain: APLKIQAYFNETADLPCQFANSQNQSLSELVVFWQDQENLVLNEVYLGKEKFDSVHSKYMGRTSFDSDSWTLRLHNLQIKDKGLYQCIIHHKKPTGMIRIHQMNSELSVLANFSQPEIVPISNITENVYINLTCSSIHGYPEPKKMSVLLRTKNSTIEYDGVMQKSQDNVTELYDVSISLSVSFPDVTSNMTIFCILETDKTRLLSSPFSIELEDPQPPPDH
notes: Used biotinylated in ELISA; also called hB7-2Fc; CD86
B3: CTLA-4Fc mutant protein M16 (Fc fusion)
chain: IQVTQPSVVLASSRGIASFVCEYASPGKATEVRVTVLRQADSQVTEVCAATFTEKNTVGFLDDSICTGTFNESRVNLTIQGLRAMDTGLYICKVELMYPPPYFVGMGNGTQIYVIDPEPCPDSDQEPKSSDKTHTSPPSPAPELLGGSSVFLFPPKPKDTLYITREPEVTCVVVDVSHEDPEVKFNWYVDGVEVHNAKTKPREEQYNSTYRVVSVLTVLHQDWLNGKEYKCKVSNKALPAPIEKTISKAKGQPREPQVYTLPPSRDELTKNQVSLTCLVKGFYPSDIAVEWESNGQPENNYKTTPPVLDSDGSFFLYSKLTVDKSRWQQGNVFSCSVMHEALHNHYTQKSLSLSPGK

Assay [1] addresses T1, CTLA-4Fc mutant protein M8 (human (murine residues substituted)).
T1 construct: also called Mutant 8
Put plainly: ELISA; binder 1000 ng/ml on coated target.

Assay [2] has as its target T2, CTLA-4Fc mutant protein M6 (human (murine residues substituted)).
T2 construct: also called Mutant 6
Put plainly: ELISA; binder 1000 ng/ml on coated target. On the technique in general: ELISA stands for enzyme-linked immunosorbent assay.

Assay [3] has as its target T3, human IgG1-Fc control (human, UniProt P01857-1 99-330 = IgG part, limits assumed).
T3 construct: domain: Fc; Negative control coated on plates; also called Control IgG1-Fc; hIg-Fc
Put plainly: ELISA, summary grade.

For assay [4], the target named is T2, CTLA-4Fc mutant protein M6. The assay can be described thus: ELISA; binder 10 ng/ml on coated target.
Assay [5] deals with B1. The assay can be described thus: ELISA, summary grade.

On to B1, for which the OD450 worked out at 3.63 OD450 in assay [1], 3.41 OD450 in assay [2] and 0.279 OD450 in assay [4]. In addition, the binding result in assay [3] is listed as “no binding”.
On to B2, for which, in assay [3], the binding result is “no binding”.
In the case of B3, in assay [5], the binding result is listed as “binds”.

(Values after US20190263889A1 (ONCOC4, published 2019).)
